# According to the nanobody polyreactivity screen of Harvey et al. (2022):
# Test: yeast display, Sf9 membrane polyspecificity reagent, FACS + sequencing; frameworks hold sequencing errors
# Procedure, shortened: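 In a synthetic yeast display library (Saccharomyces cerevisiae BJ5465), nanobody expression was induced with galactose for 36–48 hours. FACS gates were set low and high (top ~1%) using anti-HA fluorescence for expression and streptavidin fluorescence for binding of the Sf9 membrane reagent. Each polyreactivity label is drawn from the gate of origin.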
row,Sequence,polyreactivity (PSR sort gate)
1,QVQLVESGGGLVQEGGSLRLSCAASGSTFGVYSMGWYRQAPGKERELVAAISYTGGSTYYADSVKGRFTISRDNAKNSVYLQMNSLKPEDTGVFYCAVEVGYTDSPYSYDYWGEGTQVTVSS,low polyreactivity
2,QVQLVESGGGLVQAGGSLRLSCAASGSIFASNAMGWYRQAPGKERELVAAINSGGNTYEDSVKGRFTISRDNAKNTVYLQMNSLKPEDTAVYYCSVVWNWWSGLSPGYPDFDYWGQGTQVTVSS,low polyreactivity
3,QVQLVESGGGLVQAGGSLRLSCAASGITFEYYAMGWYRQAPGKERELVAAISWSGSSTYYADSVKGRFTISRDNAKNTVYLQMNSLKPEDTAVYYCNADSSWWASDDQYDYWGQGTQVTVSS,low polyreactivity
4,QVQLVESGGGLVQAGGSLRLSCAASGYTFKRYAMGWYRQAPGKERELVAAISQSGTNTYYADSVKGRFTISRDNAKNTVYLQMNSLKPEDTAVYYCAAKPPRRYQLMDYWGQGTQVTVSS,high polyreactivity
5,QVQLVESGRGVVQAGGSLRLSRADSGIIFLDHAMGWYRQAPGKEWELVAGINGGGRTDYADSVQGRFTISRDNAKNTVYLQMNSLTPEDTAVYYCAAESSWYSPDVNFWGQGTQVTVSS,low polyreactivity
6,QVQLVESGGGFVQSGGSLRLSCAASGITFRYYTMGWYRQPPRKERELDAVISWSGGSTYYADSVKGRFTISRDNAKNTVYLQRNSLKPEDTAVYYCAAVRRISRYDYWGQGTQVTVSS,high polyreactivity
7,QVQLVESGGGLVQAGGSLRLSCAATGRIFNYYAMGWYRQAPGKERELVAAISNGGSTYYADSVKGRFTISRDNAKNTVYLQMNSLKPEDTAVYYCNAAARNGYARRVYYWGQGTQVTVSS,high polyreactivity
8,QVQLVESGGGIVQAGGSLRVSCAASGFTFHKYAMGWYRQAPGTERELVAVISQSASSTYYADSVKGRFTISRDNAKNTVYFQMNGLKPEDTAVYYCNAKYYRYNRRNYWGQVTQVTVSS,high polyreactivity
9,QVQLVDSAAALVQAGGSQRLTCAASGLIFYYSVMGSYRQAPGKERELVARISTSGGSTYYADSVKGRFTISRDNAKNTVYIQMNSLKPEDTAVYYCAARGYRQYGWDCYCGQGTQVTVSS,low polyreactivity
10,QVQLVESGGGLVQAGGSLRLSCAASGFTFFYYDMGWYRQAPGKERELVADITTGGSTYYADSVKGRFTISRDNAKNTVYLQMNSLKPEDTAVYYCAALLYVSNSYRWWPWDGEDYWGQGTQVTVSS,high polyreactivity
11,QVQLVESGGGLVQAGGSLRLSCAASGFTFTDNAMGWSRQAPGKERELVAAISRGVGTNYADSVKGRFTISRDNAKNTVYLQMNSLKPEDTAVYYCAAGGRSVRYNYWGQGTQVTVSS,high polyreactivity
12,QVQLVESGGGLVQAGGRLRLSCAASGSIFDRYAMGWYRQAPGKERELVAAITRSGGSTYYADSVKGRFTISRDNAKNTVYLQMNSLKPEDTAVYYCNKVYPPRSIPYDFCGQGTQVTVSS,low polyreactivity
13,QVQLVESGGGLVQAGGSLRLSCAASGRTYGVYAMGWYRQAPGKERELVATITLSGGRTYYAHSVKGRFTISRDNAKNTVYLEMNSLKPEDSAVYYCNARFSYYYGFRASRLDYWGQGTQVNVSS,high polyreactivity
14,QVQLVESGGGLVQAGGSLRLSCASSGNTFKTNAMGWYRQAPGKERELVAAISSSGSTYYADSVKGRFTISRDNAKNTVYLQMNSLKPEDTAVYYCAVTYRRFYYWGQGTQVTVSS,high polyreactivity
15,QVQLVESGGGLVQAGGSLRLSCAASGYIFRYYAMGWYREAPGKERELVARINSGGSTYADSVKGRFTISRDNAKNTVYLQMNSLKPEDTAVYYCAADLAKYRSKLGYWGQVTQVTVSS,high polyreactivity
16,QVQLVESGGGLVQAGGSLRLSCAASGNTFYGYAMGWYRQAPGNERELVASITLSGDSTYYADSVKGRFTISRDNAKNTVYLQMNSLKPEDTAVYYCAGVYTYPLGYYHDTYDYWGQGTQVTVSS,low polyreactivity

row,Sequence,polyreactivity (PSR sort gate)
1,QVQLVESGGGLVQAGCSLRGSCAAYRSTFIRYAMGWSRPAPGKERELVAAITWRGGSTYYADSVKGRFTISRDNEKNTVYLQMKSLKPDDSAVSFCAARDRDTRNYYWVQGTQVTVSS,high polyreactivity
2,QVQLVESGGGLVQAGGSLRLSCAASGSIFPYYAMGWYRPAPGKERELVAGITSGTRTNYADSVKGRFTISRDNAKNTVYLQMNSLKPEDTAVYYCAAYYRAYRRDYYWGQGTQVTVSS,high polyreactivity
3,QVQLVESGGGLVQAGGSLRLSCAASGRTSTQNAMGWYRQAPGKERELVAAITTGGGSTYYADSVKGRFTISRDNAKNTVYLQMNSLKPEDTAVYYCAARTPQRSEWTKYGYWGQGTQVTVSS,low polyreactivity
4,QVQLVESGGGLVQAGGSLRLSCAASGGTFYANAMGWSRQAPGKEREFVASISRSVGSTYYADSVKGRFTISRDNAKNTVYLQMNSLKPEDTAVYYCAARRYSRPRYTYYSWGQGTQVTVSS,high polyreactivity
5,QVQLQESGGGLVQAGGSLRQSYAASGYIFPSLAMGWYRQAPGKESEFVAAIGRGSTNNYADSVKGRFTISRDNAKNTAYQQMNSLKPEDTAVYYCAAAASPLTRHLYWGQGTQVTVSS,low polyreactivity
6,QVQLVESGGGIVQAGGSLRLSCAASGRIFEWYAMGWYRQAPGKERELVAAITKTAGSTYYADSVKGRFTISRDNAKNTVYLQMNSLKPEDTAVYYCNAKTYHSRRKVLRFDYWGQGTQVTVSS,low polyreactivity
7,QVQLVESGGGLVQAGGSLRLSCAASGRIFYGNAMGWYRQAPGKERELVAAISSGTSTNYADSVKGLFTISRDNAKNTVYLQMHCLKPVDTAVYYCAAGSYSLYLYSLYFDFDYWGQGTQVTVSS,low polyreactivity
8,QVQLVESRGGLVQAGGSLRLSYAASGITFRKYAIGWYRQAPGKESELVAAISWSGGSTYYADSVKGGFTISRDNAMNTVYLQMNSMKPEDTAVYYCAAPHWSPYDYWGQGTQVTVSS,high polyreactivity
9,QVQLVESGGGLVQAGGSLRLSCAASGIISYLYAMGWYRQAPGKERELVAVIRTSDAITYYADSVKGRFTISRDNAKNTVYLQMISLKPEDTAVYYCAAEDVYEYDYWGQGTQVTVSS,high polyreactivity
10,QVRRVESGGGLVQAGGSLRLSCAASGSTFPWYAMGWYRQAPGTERELVASITSGTTTNYADSVKGRFTISRDNAKNTVYLEMNSLKPEDTAVYYCAASWVYPYDYWGQGTQVTVSS,low polyreactivity
11,QVQLVESGGGLVQAGGSLRLSCAASGSIFKVYAMGWYRQAPGKERELVAAITGSGGSTYYADSVKGRFTISRDNAKNTVYLQMNSLKPEDTAVYYCNTDYYYSGYFRRFDYWGQGTQVTVSS,high polyreactivity
12,QVQLVESGGGLVQAGGSLRLSCAASGLIFLYYAMGWYRQAPGKERELVAAISRRGGSTYYADSVKGRFTISRDNAKNTVYLQMNSLKPEDTAVDYCAANYESYPRGIWTYYYWGQGTQVTVSS,high polyreactivity
13,QVQLVESGGGLVQAGGSLRLSCAASGGTFPGYTMGWYRQAPGKERELVAAISRGGRTYYADSVKGRFTISRDNAKNTVYLQMNSLKPEDTAVYYCNAVTKYGNFDYWGQGTQVTVSS,high polyreactivity
14,QVQLVESGGGLVQAGGSLRLSCAASGFTFYRYAMGWYRQAPWKERELVAVISGNAGSTYYADSVKGRFTISRDNAKNTVYLQMNSLKPEDTAVYYCNARKARAYGTFEYWGQGTQVTVSS,high polyreactivity
15,QVQLVESGGGLVQAGGSLRLSCAASGFIFYSYALGWYRQAPGKEREFVASISGRTGSTYYADSVKGRFTISRDNAKNTVYLQMNSLKPEDTAVYYCNARIVHSFRYDYWGQGTQVTVSS,low polyreactivity
16,QVQLVESGGGLVQAGGSLRLSCAASGSTFIYYVKGWYRQAPGNERELVAAISGRTGSTYYADSVKGRFTISRDNAKNTVYLQMNSLTPEDTAVYYCAKRGFLYWDHVSGFYRYDYWGQGTQVTVSS,low polyreactivity
